Consider three molecules from patent US12710427B2, “Anti-human neurotensin receptor 1 antibody and use thereof” (National Health Research Institutes, priority 2020, dated 2026).

Entries after “also recorded” stand apart in the source; their conditions may differ.

One data set concerns PC-3. Briefly: In vitro cell cytotoxicity assay (CellTiter-Glo). Format: cell-based. Here is the method:
(§1) The number of living cells were determined using the CellTiter-Glo® Luminescent Cell Viability Assay (Promega G7571). Cells were plated in 96-well opaque Costar plates (Cat number 136101). In brief, 500-2500 cells in 90 μL media were added to each well in quadruplicate and allowed to adhere for 16 hours. Anti-NTSR1 (dose range: 0-500 nM), anti-NTSR1-MMAE (dose range: 0-500 nM) or Paclitaxel (dose range: 0-100 nM) were added in […] 72-120 hours, medium was removed, and 200 μL of CellTiter-Glo® viability reagent contain culture medium (1:1) was added to each well and placed on an orbital shaker in the dark for 2 minutes. The plate was allowed to sit at RT for 10 minutes before being read on a GloMax® Explorer Multimode Microplate Reader (GM3500).

The test system of a further data set is A549. Put plainly: In vitro cell cytotoxicity assay (CellTiter-Glo). Format: cell-based. Here is the method:
as §1
(ATP-based viability assays read luminescence as a measure of living cells.)

The next data set in a line: Isoelectric point (pI). Format: physicochemical.
The nature of data set [1]: Pharmacokinetics in mice, serum antibody by ELISA. It counts as in vivo. Here is the method:
The pharmacokinetics of h7C3-3 and h7C3-4 were evaluated in B6 mice. B6 mice (n=6) were administered 10 mg/kg of test material (based on the antibody component) by tail vein injection. Blood samples were collected from each mouse via the saphenous vein at hour 1, 2, and 6, and at day 1, 2, 3, 4, 7, 9, 11, 14, 16, 18, 21, 23, 25, 35 and 42 post-injection, and serum samples were collected. Plasma concentrations of h7C3-3 and h7C3-4 were measured by IgG (Total) Human ELISA Kit (Invitrogen, BMS2091).
(In an ELISA, binding on a coated surface is turned into a signal by an enzyme label.)

The subject of data set [2] is H1299 lung tumor xenograft. Briefly: H1299 lung tumor xenograft model. It counts as in vivo, nude mice. Conditions: for body weight: 10 mg/kg, H1299 xenograft mice. The source says: (§2) Immuodeficient male NU/NU nude mice (for H1299 and PC-3 xenograft study) and male Fox Chase SCID® mice (for HA22T-Luc xenograft study) of 7-week-old purchased from BioLASCO were housed in sterilized cages equipped with an air filter and sterile bedding materials at the Laboratory Animal Center of the National Health Research Institutes (NHRI), which is an AAALAC International accredited facility. All mice were fed with sterilized water and chow ad libitum under 12-hour light/12-hour dark cycle throughout the study. On the day of tumor cell inoculation, the number of viable cells was counted by using a hemocytometer with trypan blue staining under a light microscope. Cells were suspended in phenol red-free medium [RPMI1640 (H1299) or DMEM (HA22T-Luc)] or PBS (PC-3) and Matrigel™ (356237, Matrigel® Matrix, Corning, MA, United States) in 1:1 ratio. H1299 (1×10^6 cells), HA22T-Luc (5×10^6 cells) and PC-3 (1×10^6 cells) were implanted subcutaneously into the left flank of either nude or SCID mice using a 1 mL syringe (needle 24G×1 inch). Tumor dimensions were measured with a digital caliper, and the tumor volume in mm^3 was calculated by the formula: Volume=(length×width^∧2)/2. Tumor-bearing mice were grouped (n=5-8 per group) and administered when the average tumor volume was approximately at 200 mm^3. In the 3 individual xenograft studies, human IgG (HU-GF-ED, Lot#120916DG, Molecular Innovations, MI, USA), h7C3-4, h7C3-3-MMAE and h7C3-4-MMAE were diluted in 1× Dulbecco's Phosphate Buffered Saline (02-023-5A, Biological Industries, CT, USA) freshly before dosing at concentration of 2.5 mg/ml. Cisplatin (KEMOPLAT, 1 mg/mL, 87200009AA, Fresenius Kabi, Bad Homburg, Germany) was purchased. In the H1299 xenograft study, tumor-bearing mice were divided into 5 groups (6 mice per group): Human IgG −10 mg/Kg group (negative control), Cisplatin—7 mg/Kg group (positive control), h7C3-3-MMAE —10 mg/Kg group, h7C3-4 −10 mg/Kg group and h7C3-4-MMAE −10 mg/Kg group. The mice were intravenously injected with 4 mL/Kg of dose volume by tail vein twice per week for 3 weeks, except for the Cisplatin group, which was once per week for 3 weeks. In the HA22T-Luc xenograft study, tumor-bearing mice were divided into 3 groups (8 mice per group): Human IgG −10 mg/Kg group (negative control), h7C3-3-MMAE −10 mg/Kg group and h7C3-4-MMAE (ADC) −10 mg/Kg group. The mice were intravenously injected with 4 mL/Kg of dose volume by tail vein twice per week for 2 weeks. In the PC-3 xenograft study, tumor-bearing mice were divided into 2 groups: no treatment group (5 mice) and h7C3-4-MMAE (ADC) −10 mg/Kg (8 mice). The mice in h7C3-4-MMAE −10 mg/Kg group were intravenously injected with 4 mL/Kg of dose volume by tail vein twice per week for 3 weeks. Each treatment was based on the body weight. Body weight and tumor size were measured twice weekly.
Nude mice were subcutaneously inoculated with NTSR1-expressing cells, H1299 (1×10^6 cells per mouse). When the tumors reached a volume of 200 mm^3, the tumor-bearing mice were grouped (n=6) and administered intravenously with human IgG (negative control), h7C3-3-MMAE, h7C3-4 and h7C3-4-MMAE, respectively, at 10 mg/Kg twice weekly for six doses. The Cisplatin (positive control) was administered intravenously at 7 mg/Kg weekly for three doses.

The next data set concerns Mahlavu. Put plainly: In vitro cell cytotoxicity assay (CellTiter-Glo). It counts as cell-based. Here is the method: as §1
For another data set, the system named is H1299. Briefly: In vitro cell cytotoxicity assay (CellTiter-Glo). It counts as cell-based. How it is done:
as §1

In a further data set the test system is HA22T-Luc. Briefly: In vitro cell cytotoxicity assay (CellTiter-Glo). Format: cell-based. Here is the method: as §1
The test system of a further data set is HA22T. Put plainly: In vitro cell cytotoxicity assay (CellTiter-Glo). Format: cell-based. How it is done:
as §1

In data set [3] the test system is NTSR1-expressing A549 cancer cells. Briefly: Internalization of h7C3-3 or h7C3-3-ADC in A549 cells (flow cytometry). It counts as cell-based. Particulars: A549, 1 μg/ml, 37° C. for 90 minutes. How it is done:
A total of 1×10^6 cells were reacted with the indicated antibody or ADC in 100 μL of FACS buffer for 60 minutes at 4° C. and washed to remove excess antibody or ADC. Cells were then transferred to 4° C. or 37° C. for 90 minutes. To determine the relative number of h7C3-3 or h7C3-3-ADC on the cell surface, cells were stained with saturating amounts of FITC (BD Pharmingen™) conjugated mouse anti-human IgG antibodies and incubated for additional 60 minutes on ice. Cells were washed again and followed by an additional incubation with 1 ml PBS containing 0.5 mg/mL propidium iodide at 4° C. for 10 minutes. Data were collected on 10,000 living cells by FACS (Bio-Red S3e cell sorter). Fluorescence intensity from channel FL-1 was calculated with Flow Jo flow cytometry analysis software. Preparation of anti-NTSR1 antibody-drug conjugates (ADCs)

A further data set deals with T1, NTSR1 on A549 cells (Homo sapiens, UniProt P30989).
T1 construct: endogenous in cells; host or cells: A549 (NSCLC)
T1 sequence (P30989 whole entry): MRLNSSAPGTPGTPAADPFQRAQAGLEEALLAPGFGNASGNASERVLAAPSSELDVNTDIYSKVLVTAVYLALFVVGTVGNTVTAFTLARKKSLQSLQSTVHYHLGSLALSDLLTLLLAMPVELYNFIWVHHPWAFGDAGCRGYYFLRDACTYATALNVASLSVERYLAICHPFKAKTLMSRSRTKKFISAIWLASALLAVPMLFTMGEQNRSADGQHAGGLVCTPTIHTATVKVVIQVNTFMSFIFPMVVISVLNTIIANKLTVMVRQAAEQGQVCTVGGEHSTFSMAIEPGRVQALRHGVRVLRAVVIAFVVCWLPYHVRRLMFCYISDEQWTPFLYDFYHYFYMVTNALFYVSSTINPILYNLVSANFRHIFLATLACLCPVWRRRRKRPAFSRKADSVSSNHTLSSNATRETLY
Briefly: Flow cytometry (FACS) binding of anti-NTSR1 antibodies on A549 cells. Conditions: A549 cells, one hour incubation at 4° C. Here is the method: A total of 1×10^6 cells were reacted with an anti-NTSR1 antibody in 100 μL of FACS buffer (PBS containing 0.5% BSA) for 60 minutes at 4° C. and washed two times to remove excess antibody. Secondary FITC (BD Pharmingen™) conjugated mouse anti-human IgG antibodies were incubated for an additional 60 minutes on ice. Cells were washed again and followed by an additional incubation with 1 ml PBS containing 0.5 mg/mL propidium iodide at 4° C. for 10 minutes. Data were collected on 10,000 living cells by FACS (Bio-Red S3e cell sorter). Fluorescence intensity from channel FL-1 was calculated with Flow Jo flow […] cytometry analysis software.
A general note: Flow cytometry measures light scatter and fluorescence of single cells or particles in a stream.

In data set [4] the test system is HA22T-Luc liver tumor xenografts. Briefly: HA22T-Luc liver tumor xenograft model. Format: in vivo, SCID mice. Conditions: for tumor volume on day 15 / tumor volume until 36 days: 10 mg/Kg i.v. twice weekly for four doses; for body weight: 10 mg/kg, HA22T-Luc xenograft mice.
Text: as §2
To compare the anti-tumor efficacies of h7C3-3-MMAE and h7C3-4 MMAE, an experiment was performed with 5×10^6 HA22T-luc liver cancer cells inoculated subcutaneously to SCID mice. Tumor-bearing mice were divided into 3 groups (n=8). When the tumors reached a volume of 200 mm^3, 10 mg/Kg of human IgG, h7C3-3-MMAE and h7C3-4 MMAE were administered intravenously, respectively, twice weekly for four doses.

Data set [5] has as its system PC3 prostate tumor xenograft. Put plainly: PC3 prostate tumor xenograft model. It counts as in vivo, nude mice.
Text: as §2, with “The mice were intravenously injected with 4 mL/Kg of dose volume by tail vein twice per week for 3 weeks, except for the Cisplatin group, which was once per week for 3 weeks. In the HA22T-Luc xenograft study, tumor-bearing mice were divided into 3 groups (8 mice per group): Human IgG −10 mg/Kg group (negative control), h7C3-3-MMAE −10 mg/Kg group and h7C3-4-MMAE (ADC) −10 mg/Kg group. The mice were intravenously injected with 4 mL/Kg of dose volume by tail vein twice per week for 2 weeks. In the PC-3 xenograft study, tumor-bearing mice were divided into 2 groups: no treatment group (5 mice) and h7C3-4-MMAE (ADC) −10 mg/Kg (8 mice). The mice in h7C3-4-MMAE −10 mg/Kg group were intravenously injected with 4 mL/Kg of dose volume by tail vein twice per week for 3 weeks. Each treatment was based on the body weight.” left out, “weekly. […]” for “weekly.”

Setting [6] is: 10 mg/kg i.v. twice weekly for six doses.

B1: h7C3-4: h7C3-3 variant with S9T and D82E in VH and K79T in VL; VH SEQ ID NO: 13, VL SEQ ID NO: 14 (antibody, V domains shown)
VH: QVQLQQPGTVLVRPGASVKLSCKASGYAFTSSWIHWAKQRPGQGLEWIGQIRPNSGNTYYNEKFKVKATLTVDTSSSTAYVELSSLTSEDSAVYYCARYHYGFDYWGQGTLVTVSS
VL: DVLMTQTPLSLPVSLGDQASISCRSSQSIVHSNGNTYLEWYLQKPGQSPKLLIYKVSNRFSGVPDRFSGSGSGTDFTLTISRVEAEDLGVYYCFQGAHLPWTFGGGTKLEIKR
modifications: VH SEQUENCE; VL SEQUENCE
Turning to B1, the IC50 in the data set with PC-3 and with A549 was greater than 500 nM throughout. Also, the “isoelectric points (pI) compared to h7C3-3” value in the data set “Isoelectric point (pI)” is “lower”. In addition, in data set [1] (10 mg/kg), the “pharmacokinetics (overall)” value was “better pharmacokinetics”. The “clearance compared with h7C3-3” value in [1] (single intravenous administration 10 mg/kg) is on record as “significantly improved clearance”.

B2: h7C3-3-MMAE: h7C3-3 conjugated with MMAE via cleavable valine-citrulline linker, average 3.8-4 MMAE per antibody (conjugate)
VH: QVQLQQPGSVLVRPGASVKLSCKASGYAFTSSWIHWAKQRPGQGLEWIGQIRPNSGNTYYNEKFKVKATLTVDTSSSTAYVDLSSLTSEDSAVYYCARYHYGFDYWGQGTLVTVSS
VL: DVLMTQTPLSLPVSLGDQASISCRSSQSIVHSNGNTYLEWYLQKPGQSPKLLIYKVSNRFSGVPDRFSGSGSGTDFTLKISRVEAEDLGVYYCFQGAHLPWTFGGGTKLEIKR
modifications: non-natural residues
notes: h7C3-3 conjugated with MMAE via cleavable valine-citrulline linker, average 3.8-4 MMAE per antibody
In the case of B2, the “tumor growth (tumor volume) until/on day 35” value in [2] (setting [6]) was “partial inhibition of the tumor growth”. Besides, the body weight entry in [2] and in data set [4] was “did not show body weight loss” each time. Also, the IC50 (in general, the concentration needed to halve the response being measured) is 236 ± 6.9 nM in the data set with Mahlavu; 95.6 ± 2.02 nM in the data set with H1299; 21.9 ± 2.04 nM in the data set with PC-3; 40.9 ± 1.63 nM in the data set with A549; 39.4 ± 2.87 nM in the data set on HA22T-Luc; 36.9 ± 3.04 nM in the data set with HA22T. Besides, the internalization efficiency entry in data set [3] was “internalized efficiently”. For the same molecule, the “binding on cell surface” value in the data set with NTSR1 on A549 cells is on record as “have binding efficiency on cell surface”. Moreover, in [4], the “tumor volume on day 15” value is listed as “tumor regression”. Further, the “tumor volume until 36 days” value in data set [4] is given as “prolonged regression of tumor”.

B3: h7C3-4-MMAE: h7C3-4 conjugated with MMAE via cleavable valine-citrulline linker, average 3.8-4 MMAE per antibody (conjugate)
VH: QVQLQQPGTVLVRPGASVKLSCKASGYAFTSSWIHWAKQRPGQGLEWIGQIRPNSGNTYYNEKFKVKATLTVDTSSSTAYVELSSLTSEDSAVYYCARYHYGFDYWGQGTLVTVSS
VL: DVLMTQTPLSLPVSLGDQASISCRSSQSIVHSNGNTYLEWYLQKPGQSPKLLIYKVSNRFSGVPDRFSGSGSGTDFTLTISRVEAEDLGVYYCFQGAHLPWTFGGGTKLEIKR
For the molecule B3, the “tumor growth (tumor volume) until/on day 35” value in [2] (setting [6]) is on record as “Prolonged regression of tumor”. Further, the “tumor growth (tumor volume) on day 18” value in data set [2] (10 mg/kg i.v. twice weekly for six doses, vs human IgG 10 mg/kg and Cisplatin 7 mg/kg) is given as “inhibited the tumor growth more potently”. For the same molecule, in data set [2], the body weight result is “did not show body weight loss”. For the same molecule, in the data set with PC-3, the 50% inhibitory concentration (IC50) is 55.4 ± 5.17 nM. In the data set on A549, this molecule gave an IC50 of 33.5 ± 3.32 nM. For the same molecule, in data set [5] (setting [6]), the antitumor efficacy result is on record as “highly efficacious” and the “tumor volume until day 60” value was “prolonged regression of tumor”. For the same molecule, in [5] (10 mg/kg, PC3 xenograft mice), the “body weight / general physiological conditions” value is listed as “did not induce any abnormalities; also recorded: did not cause body weight loss”. In addition, in data set [4], the “tumor volume on day 15” value is recorded as “tumor regression”, the “tumor volume until 36 days” value is reported as “prolonged regression of tumor” and the body weight entry is “did not show body weight loss”.
